From the supplement of paper PMC9112550, “Optimization of the antimicrobial peptide Bac7 by deep mutational scanning” (BMC Biology, 2022)

System: Escherichia coli TOP10
Assay: shrunken log2 fold change of peptide-encoding DNA abundance (4.5 h post-induction vs induction); higher = less antimicrobial activity (less host growth inhibition)
Conditions: time post-induction: 4.5 h; library: site-saturation at positions 5, 18, 19, 20
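Further: peptides expressed intracellularly from a pBAD plasmid library in pooled LB shake-flask culture, induced with 0.3% L-arabinose, DNA abundance read by NGS, three biological replicates, DESeq2 with apeglm shrinkage.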

Sequence: RRIRPRPPRLPRPRPRPNSDPRP
- shrunken log2 fold change: -0.39

Sequence: RRIRARPPRLPRPRPRPTTWPRP
- shrunken log2 fold change: 0.423

Sequence: RRIRKRPPRLPRPRPRPTSEPRP
- shrunken log2 fold change: 0.79

Sequence: RRIRVRPPRLPRPRPRPEYGPRP
- shrunken log2 fold change: -0.00905

Sequence: RRIRWRPPRLPRPRPRPENFPRP
- shrunken log2 fold change: 0.00343

Sequence: RRIRSRPPRLPRPRPRPGCIPRP
- shrunken log2 fold change: 0.0242

Sequence: RRIRRRPPRLPRPRPRPGEWPRP
- shrunken log2 fold change: 0.701

Sequence: RRIRKRPPRLPRPRPRPWLEPRP
- shrunken log2 fold change: -0.00226

Sequence: RRIRFRPPRLPRPRPRPLYIPRP
- shrunken log2 fold change: -0.63

Sequence: RRIRNRPPRLPRPRPRPYDAPRP
- shrunken log2 fold change: -0.066

Sequence: RRIRMRPPRLPRPRPRPLQCPRP
- shrunken log2 fold change: -0.0663

Sequence: RRIRGRPPRLPRPRPRPISLPRP
- shrunken log2 fold change: -0.228

Sequence: RRIRHRPPRLPRPRPRPPQLPRP
- shrunken log2 fold change: -0.215

Sequence: RRIRNRPPRLPRPRPRPYFGPRP
- shrunken log2 fold change: -0.284

Sequence: RRIRERPPRLPRPRPRPQSVPRP
- shrunken log2 fold change: -0.0488

Sequence: RRIRSRPPRLPRPRPRPEPMPRP
- shrunken log2 fold change: 0.54

Sequence: RRIRCRPPRLPRPRPRPGTPPRP
- shrunken log2 fold change: 0.0685

Sequence: RRIRFRPPRLPRPRPRPYWGPRP
- shrunken log2 fold change: -0.186

Sequence: RRIRHRPPRLPRPRPRPTHGPRP
- shrunken log2 fold change: 0.125

Sequence: RRIRPRPPRLPRPRPRPAEAPRP
- shrunken log2 fold change: 0.103

Sequence: RRIRIRPPRLPRPRPRPVKKPRP
- shrunken log2 fold change: -0.0235

Sequence: RRIRQRPPRLPRPRPRPNFKPRP
- shrunken log2 fold change: -0.235

Sequence: RRIRYRPPRLPRPRPRPHIRPRP
- shrunken log2 fold change: -0.206

Sequence: RRIRDRPPRLPRPRPRPPSSPRP
- shrunken log2 fold change: -0.0759

Sequence: RRIRWRPPRLPRPRPRPMFKPRP
- shrunken log2 fold change: 0.0191

Sequence: RRIRMRPPRLPRPRPRPQCTPRP
- shrunken log2 fold change: 0.0479

Sequence: RRIRVRPPRLPRPRPRPDGDPRP
- shrunken log2 fold change: -0.339

Sequence: RRIRGRPPRLPRPRPRPAMLPRP
- shrunken log2 fold change: 0.7

Sequence: RRIRHRPPRLPRPRPRPWTDPRP
- shrunken log2 fold change: -0.0171

Sequence: RRIRERPPRLPRPRPRPLYNPRP
- shrunken log2 fold change: -0.264

Sequence: RRIRLRPPRLPRPRPRPLFDPRP
- shrunken log2 fold change: -0.148

Sequence: RRIRHRPPRLPRPRPRPWDEPRP
- shrunken log2 fold change: -0.175

Sequence: RRIRHRPPRLPRPRPRPYDKPRP
- shrunken log2 fold change: -0.961

Sequence: RRIRMRPPRLPRPRPRPPNQPRP
- shrunken log2 fold change: 0.42

Sequence: RRIRSRPPRLPRPRPRPASKPRP
- shrunken log2 fold change: 0.019

Sequence: RRIRTRPPRLPRPRPRPTHTPRP
- shrunken log2 fold change: 0.0425

Sequence: RRIRTRPPRLPRPRPRPRKGPRP
- shrunken log2 fold change: 0.333

Sequence: RRIRKRPPRLPRPRPRPRGYPRP
- shrunken log2 fold change: 0.166

Sequence: RRIRHRPPRLPRPRPRPHMLPRP
- shrunken log2 fold change: -0.0874

Sequence: RRIRERPPRLPRPRPRPSFFPRP
- shrunken log2 fold change: 0.221

Sequence: RRIRSRPPRLPRPRPRPLAGPRP
- shrunken log2 fold change: 0.225

Sequence: RRIRDRPPRLPRPRPRPPPWPRP
- shrunken log2 fold change: 0.788

Sequence: RRIRERPPRLPRPRPRPDKRPRP
- shrunken log2 fold change: -0.023

Sequence: RRIRLRPPRLPRPRPRPNKIPRP
- shrunken log2 fold change: -0.243

Sequence: RRIRSRPPRLPRPRPRPWKLPRP
- shrunken log2 fold change: -0.221

Sequence: RRIRHRPPRLPRPRPRPRIGPRP
- shrunken log2 fold change: 0.172

Sequence: RRIRSRPPRLPRPRPRPPTGPRP
- shrunken log2 fold change: 0.369

Sequence: RRIRFRPPRLPRPRPRPMVGPRP
- shrunken log2 fold change: -0.225

Sequence: RRIRDRPPRLPRPRPRPWLPPRP
- shrunken log2 fold change: 0.0708

Sequence: RRIRGRPPRLPRPRPRPVDTPRP
- shrunken log2 fold change: 0.678

Sequence: RRIRWRPPRLPRPRPRPWRMPRP
- shrunken log2 fold change: -0.182

Sequence: RRIRIRPPRLPRPRPRPIRMPRP
- shrunken log2 fold change: -0.346

Sequence: RRIRCRPPRLPRPRPRPEGAPRP
- shrunken log2 fold change: 0.766

Sequence: RRIRPRPPRLPRPRPRPLLRPRP
- shrunken log2 fold change: 1.73

Sequence: RRIRKRPPRLPRPRPRPTRIPRP
- shrunken log2 fold change: 0.312

Sequence: RRIRMRPPRLPRPRPRPAHTPRP
- shrunken log2 fold change: 0.709

Sequence: RRIRDRPPRLPRPRPRPATEPRP
- shrunken log2 fold change: 0.646

Sequence: RRIRSRPPRLPRPRPRPHLYPRP
- shrunken log2 fold change: -0.02

Sequence: RRIRTRPPRLPRPRPRPCEAPRP
- shrunken log2 fold change: 0.114

Sequence: RRIRGRPPRLPRPRPRPSVPPRP
- shrunken log2 fold change: 0.215

Sequence: RRIRMRPPRLPRPRPRPFWIPRP
- shrunken log2 fold change: 0.00154

Sequence: RRIRYRPPRLPRPRPRPLMCPRP
- shrunken log2 fold change: -0.632

Sequence: RRIRWRPPRLPRPRPRPWWCPRP
- shrunken log2 fold change: -0.0237

Sequence: RRIRQRPPRLPRPRPRPVSVPRP
- shrunken log2 fold change: 0.028

Sequence: RRIRNRPPRLPRPRPRPYSKPRP
- shrunken log2 fold change: -0.926

Sequence: RRIRHRPPRLPRPRPRPWAQPRP
- shrunken log2 fold change: 0.0333

Sequence: RRIRTRPPRLPRPRPRPHYFPRP
- shrunken log2 fold change: -0.914

Sequence: RRIRRRPPRLPRPRPRPDNFPRP
- shrunken log2 fold change: 0.028

Sequence: RRIRMRPPRLPRPRPRPICPPRP
- shrunken log2 fold change: -0.123

Sequence: RRIRKRPPRLPRPRPRPCKNPRP
- shrunken log2 fold change: -0.0355

Sequence: RRIRTRPPRLPRPRPRPTMYPRP
- shrunken log2 fold change: -0.82

Sequence: RRIRKRPPRLPRPRPRPRMGPRP
- shrunken log2 fold change: 0.149

Sequence: RRIRTRPPRLPRPRPRPSWKPRP
- shrunken log2 fold change: -0.124

Sequence: RRIRDRPPRLPRPRPRPPVHPRP
- shrunken log2 fold change: 0.105

Sequence: RRIRERPPRLPRPRPRPSVEPRP
- shrunken log2 fold change: -0.326

Sequence: RRIRQRPPRLPRPRPRPNGMPRP
- shrunken log2 fold change: -0.0839

Sequence: RRIRIRPPRLPRPRPRPCMNPRP
- shrunken log2 fold change: -0.307

Sequence: RRIRHRPPRLPRPRPRPSEHPRP
- shrunken log2 fold change: 0.00525

Sequence: RRIRGRPPRLPRPRPRPEHHPRP
- shrunken log2 fold change: 0.262

Sequence: RRIRHRPPRLPRPRPRPDKTPRP
- shrunken log2 fold change: 0.0185

Sequence: RRIRTRPPRLPRPRPRPVQFPRP
- shrunken log2 fold change: -0.0192

Sequence: RRIRVRPPRLPRPRPRPVCPPRP
- shrunken log2 fold change: 0.0825

Sequence: RRIRGRPPRLPRPRPRPLMYPRP
- shrunken log2 fold change: -0.00226

Sequence: RRIRPRPPRLPRPRPRPHDLPRP
- shrunken log2 fold change: 0.0288

Sequence: RRIRCRPPRLPRPRPRPFDSPRP
- shrunken log2 fold change: -0.00174

Sequence: RRIRWRPPRLPRPRPRPKDFPRP
- shrunken log2 fold change: 0.0488

Sequence: RRIRDRPPRLPRPRPRPDMWPRP
- shrunken log2 fold change: 0.0213

Sequence: RRIRNRPPRLPRPRPRPICIPRP
- shrunken log2 fold change: -0.531

Sequence: RRIRIRPPRLPRPRPRPGFPPRP
- shrunken log2 fold change: 0.186

Sequence: RRIRHRPPRLPRPRPRPSMKPRP
- shrunken log2 fold change: -0.436

Sequence: RRIRVRPPRLPRPRPRPFGTPRP
- shrunken log2 fold change: -0.0129

Sequence: RRIRVRPPRLPRPRPRPKNYPRP
- shrunken log2 fold change: -0.359

Sequence: RRIRTRPPRLPRPRPRPRTMPRP
- shrunken log2 fold change: 0.0616

Sequence: RRIRPRPPRLPRPRPRPVGQPRP
- shrunken log2 fold change: 0.102

Sequence: RRIRTRPPRLPRPRPRPRDHPRP
- shrunken log2 fold change: 0.0565

Sequence: RRIRMRPPRLPRPRPRPCSVPRP
- shrunken log2 fold change: -0.0402

Sequence: RRIRMRPPRLPRPRPRPAWLPRP
- shrunken log2 fold change: 0.818

Sequence: RRIRGRPPRLPRPRPRPCGMPRP
- shrunken log2 fold change: 0.0775

Sequence: RRIRPRPPRLPRPRPRPTQQPRP
- shrunken log2 fold change: 0.827

Sequence: RRIRTRPPRLPRPRPRPAHRPRP
- shrunken log2 fold change: 0.0856

Sequence: RRIRRRPPRLPRPRPRPISFPRP
- shrunken log2 fold change: -0.27

Sequence: RRIRIRPPRLPRPRPRPFGQPRP
- shrunken log2 fold change: -0.259

Sequence: RRIRKRPPRLPRPRPRPSHHPRP
- shrunken log2 fold change: 0.02

Sequence: RRIRQRPPRLPRPRPRPRPNPRP
- shrunken log2 fold change: 0.183

Sequence: RRIRARPPRLPRPRPRPFREPRP
- shrunken log2 fold change: -0.14

Sequence: RRIRQRPPRLPRPRPRPMYYPRP
- shrunken log2 fold change: 0.0048

Sequence: RRIRRRPPRLPRPRPRPMQSPRP
- shrunken log2 fold change: 0.0774

Sequence: RRIRERPPRLPRPRPRPRIYPRP
- shrunken log2 fold change: -0.194

Sequence: RRIRPRPPRLPRPRPRPFFHPRP
- shrunken log2 fold change: -0.229

Sequence: RRIRARPPRLPRPRPRPMEWPRP
- shrunken log2 fold change: 0.259

Sequence: RRIRMRPPRLPRPRPRPWPNPRP
- shrunken log2 fold change: 0.25

Sequence: RRIRSRPPRLPRPRPRPGLSPRP
- shrunken log2 fold change: 0.245

Sequence: RRIRNRPPRLPRPRPRPAVNPRP
- shrunken log2 fold change: -0.169

Sequence: RRIRQRPPRLPRPRPRPHKFPRP
- shrunken log2 fold change: -0.279

Sequence: RRIRNRPPRLPRPRPRPSHMPRP
- shrunken log2 fold change: -0.883

Sequence: RRIRWRPPRLPRPRPRPWAHPRP
- shrunken log2 fold change: 0.0966

Sequence: RRIRDRPPRLPRPRPRPIGKPRP
- shrunken log2 fold change: -0.153

Sequence: RRIRYRPPRLPRPRPRPFKLPRP
- shrunken log2 fold change: -0.0907

Sequence: RRIRCRPPRLPRPRPRPIVFPRP
- shrunken log2 fold change: -0.31

Sequence: RRIRTRPPRLPRPRPRPVDYPRP
- shrunken log2 fold change: -0.172

Sequence: RRIRRRPPRLPRPRPRPHNYPRP
- shrunken log2 fold change: 0.103

Sequence: RRIRVRPPRLPRPRPRPWPMPRP
- shrunken log2 fold change: 0.0297

Sequence: RRIRARPPRLPRPRPRPERAPRP
- shrunken log2 fold change: 0.845

Sequence: RRIRSRPPRLPRPRPRPFRNPRP
- shrunken log2 fold change: -0.225

Sequence: RRIRMRPPRLPRPRPRPEMTPRP
- shrunken log2 fold change: -0.00169
